For one test, the target named is FXa (Homo sapiens, UniProt P00742). Description: Human FXa-inhibiting activity, substrate S-2222. Type of test: biochemical. Also on record: purchased American Diagnostica Inc. As to conditions: for human FXa-inhibiting activity: purified sample, various concentrations, remaining activity vs buffer control (FIG. 18A-C). Here is the method: The purified sample obtained in Example 1-(5) was dissolved in 100 μl of distilled water. Concentration of this solution was determined based on its bovine trypsin-inhibiting activity using the aforementioned UTI as a standard. The solution was then diluted to various concentration levels with 0.1% BSA/150 mM NaCl/5 mM CaCl2 /50 mM Tris-HCl buffer (pH 8.3) for use in the activity measurement. The UTI was also diluted in the same manner. Using a synthetic compound S-2222 (Daiichi Pure Chemicals Co., Ltd.) as a substrate, human FXa-inhibiting activities of the diluted test samples and the positive control were measured in accordance with the method of Ohno et al. (Ohno,H. et al., Thromb. Res., vol.19, pp.579-588, 1980) as follows.
Sequence of FXa (P00742 235-488 limits assumed): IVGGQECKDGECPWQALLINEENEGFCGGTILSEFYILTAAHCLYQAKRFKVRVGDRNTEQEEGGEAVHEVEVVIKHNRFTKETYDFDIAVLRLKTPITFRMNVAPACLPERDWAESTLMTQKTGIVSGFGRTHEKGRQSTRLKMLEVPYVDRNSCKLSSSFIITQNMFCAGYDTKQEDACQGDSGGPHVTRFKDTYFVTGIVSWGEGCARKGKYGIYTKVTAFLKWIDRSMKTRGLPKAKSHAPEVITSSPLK
Sequence of FXa (P00742 41-179 partner limits assumed): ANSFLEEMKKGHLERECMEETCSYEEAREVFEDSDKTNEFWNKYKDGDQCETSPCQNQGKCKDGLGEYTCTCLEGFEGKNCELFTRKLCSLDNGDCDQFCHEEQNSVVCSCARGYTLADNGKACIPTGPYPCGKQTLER
Human FXa (American Diagnostica Inc.) was dissolved in distilled water to a concentration of 10 PEU/ml and the solution was further diluted with 0.1% BSA/150 mM NaCl/5 mM CaCl2 /50 mM Tris-HCl buffer (pH 8.3) to prepare 0.1 PEU/ml of FXa solution. 4 mM solution of S-2222 was prepared by dissolving it in distilled water and the solution was further diluted with 0.1% BSA/150 mM NaCl/5 MM CaCl2 /50 mM Tris-HCl buffer (pH 8.3) to obtain 2 mM solution of S-2222.
Next, 25 μl of the test sample or positive control was mixed with 100 μl of 0.1% BSA/150 mM NaCl/5 mM CaCl2 /50 mM Tris-HCl buffer (pH 8.3) and 25 μl of the FXa solution. After incubation at 37° C. for 10 minutes, 100 μl of the S-2222 solution was added to the mixture to start the reaction. The reaction was carried out at 37° C. for 30 minutes and then stopped by adding 50 μl of 50% acetic acid solution to the reaction mixture. Thereafter, absorbance at 405 nm was measured using a spectrophotometer.
In this instance, in order to eliminate absorbance of various solutions in the reaction mixture, a blank solution was prepared by mixing 25 μl of the FXa solution with 50 μl of 50% acetic acid and then with 25 μl of each test sample or the positive control, 100 μl of 0.1% BSA/150 mM NaCl/5 mM CaCl2 /50 mM Tris-HCl buffer (pH 8.3) and with 100 μl of the S-2222 solution.
In this figure, human FXa remaining activity was expressed by percentage based on the absorbance of a control reaction mixture in which 25 μl of 0.1% BSA/150 mM NaCl/5 mM CaCl2 /50 mM Tris-HCl buffer (pH 8.3) was used instead of the test sample or the positive control.

The target in the next test is T1, Human plasma plasmin (Homo sapiens, UniProt P00747).
T1 construct: Human plasma plasmin (Sigma Chemical Co.) was dissolved in physiological saline; purchased Sigma Chemical Co; host or cells: human plasma
T1 sequence (P00747 97-810): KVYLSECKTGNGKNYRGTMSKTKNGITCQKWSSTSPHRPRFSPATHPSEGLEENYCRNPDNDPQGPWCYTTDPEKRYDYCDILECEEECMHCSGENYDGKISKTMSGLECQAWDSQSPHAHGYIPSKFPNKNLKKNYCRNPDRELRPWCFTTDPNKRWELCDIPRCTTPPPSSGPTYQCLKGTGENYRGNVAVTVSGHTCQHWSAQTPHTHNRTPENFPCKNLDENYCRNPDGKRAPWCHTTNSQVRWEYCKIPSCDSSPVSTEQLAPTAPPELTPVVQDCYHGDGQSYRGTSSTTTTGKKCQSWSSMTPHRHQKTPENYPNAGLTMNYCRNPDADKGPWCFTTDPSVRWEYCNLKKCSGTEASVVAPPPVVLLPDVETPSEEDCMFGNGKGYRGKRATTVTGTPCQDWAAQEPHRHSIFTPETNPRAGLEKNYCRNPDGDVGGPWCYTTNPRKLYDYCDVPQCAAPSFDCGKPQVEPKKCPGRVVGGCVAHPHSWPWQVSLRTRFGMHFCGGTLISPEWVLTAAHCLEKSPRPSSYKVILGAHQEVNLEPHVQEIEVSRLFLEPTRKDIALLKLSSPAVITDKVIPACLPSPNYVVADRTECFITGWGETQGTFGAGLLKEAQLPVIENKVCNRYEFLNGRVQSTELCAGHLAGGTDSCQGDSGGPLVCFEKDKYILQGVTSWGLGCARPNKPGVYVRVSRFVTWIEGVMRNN
The test is described as follows: Plasmin-inhibiting activity, substrate S-2251. It counts as biochemical. As to conditions: purified sample, various concentrations; remaining activity vs buffer control (FIG. 16A-C). The procedure: The purified sample obtained in Example 1-(5) was dissolved in 100 μl of distilled water. Concentration of this solution was determined based on its bovine trypsin-inhibiting activity using the aforementioned UTI as a standard. The solution was then diluted to various concentration levels with 0.11M NaCl/50 mM Tris-HCl buffer (pH 7.4) for use in the activity measurement. The UTI was also diluted in the same manner. Using a synthetic compound S-2251 (Daiichi Pure Chemicals Co., Ltd.) as a substrate, human plasmin-inhibiting activities of the diluted test samples and the positive control were measured in accordance with the method of Friberger et al. (Friberger,P. et al., Haemostasis, vol.7, pp.138-145, 1978).
Human plasma plasmin (Sigma Chemical Co.) was dissolved in physiological saline to a concentration of 1 U/ml and the solution was further diluted with 50% glycerol/2 mM HCl solution to prepare 0.1 U/ml of plasmin solution. 3.5 mM solution of S-2251 was prepared by dissolving it in distilled water.
Next, 50 μl of the test sample or positive control was mixed with 50 μl of the plasmin solution and 100 μl of 0.11M NaCl/50 mM Tris-HCl buffer (pH 7.4). After incubation at 37° C. for 10 minutes, 50 μl of the S-2251 solution was added to the mixture to start the reaction. The reaction was carried out at 37° C. for 2 minutes and then stopped by adding 25 μl of 50% acetic acid solution to the reaction mixture. Thereafter, absorbance at 405 nm was measured using a spectrophotometer.
In this instance, in order to eliminate absorbance of various solutions in the reaction mixture, a blank solution was prepared by mixing 50 μl of the plasmin solution with 25 μl of 50% acetic acid and then with 50 μl of each test sample or the positive control, 100 μl of 0.11M NaCl/50 mM Tris-HCl buffer (pH 7.4) and with 50 μl of the S-2251 solution.
In this figure, human plasmin remaining activity was expressed by percentage based on the absorbance of a control reaction mixture in which 50 μl of 0.11M NaCl/50 mM Tris-HCl buffer (pH 7.4) was used instead of the test sample or the positive control.

For the molecule “CC51: polypeptide defined by the amino acid sequence of formula 1, purified from culture supernatant of E. coli JE5505 (pM560) (CNLPIVRGPCRAFIQLWAFDAVKGKCVLFPYGGCQGNGNKFYSEKECREYC)”, the “human FXa-inhibiting activity” value in the test with FXa was “activity was found”. In addition, the human plasmin-inhibiting activity result with Human plasma plasmin is on record as “activity was found”.

B1: UTI: urinary trypsin inhibitor purified from human urine (Mochida Pharmaceutical), used as positive control (protein)
chain: AVLPQEEEGSGGGQLVTEVTKKEDSCQLGYSAGPCMGMTSRYFYNGTSMACETFQYGGCMGNGNNFVTEKECLQTCRTVAACNLPIVRGPCRAFIQLWAFDAVKGKCVLFPYGGCQGNGNKFYSEKECREYCGVPGDGDEELLRFSN
modifications: glycoprotein (sugar moieties, as the filing says in general of UTI)
Take B1: the FXa-inhibiting activity result with FXa (experiments of the inventors, even at an extremely high concentration) is “no FXa-inhibiting activity was found”. Further, the “human FXa-inhibiting activity” value in the test with FXa is on record as “activity was not found”. The human plasmin-inhibiting activity entry with Human plasma plasmin is “activity was found”.

B2: TN70: polypeptide defined by the amino acid sequence of formula 3, purified from culture supernatant of E. coli JE5505 (pM552) (protein)
chain: TVAACNLPIVRGPCRAFIQLWAFDAVKGKCVLFPYGGCQGNGNKFYSEKECREYCGVPGDGDEELLRFSN
Consider B2, for which, in the test with FXa, the “human FXa-inhibiting activity” value is “activity was found”. Further, in the test with Human plasma plasmin, the human plasmin-inhibiting activity result was “activity was found”.

B3: TL66: polypeptide defined by formula 8; known enzyme-digested fragment of urinary trypsin inhibitor, made in E. coli JE5505 (pM551) (protein)
chain: TVAACNLPIVRGPCRAFIQLWAFDAVKGKCVLFPYGGCQGNGNKFYSEKECREYCGVPGDGDEELL
On to B3, for which the “human FXa-inhibiting activity” value in the test with FXa was “activity was found”. The human plasmin-inhibiting activity entry in the test with Human plasma plasmin is listed as “activity was found”.

Source of the values: patent US5792629A, “Isolated DNA encoding novel protease inhibitory polypeptide” (Mochida Pharmaceutical Co., Ltd., priority 1990, dated 1998).
